Columns and labels:
CMKLR1 = conditions: cited from earlier work
Excerpt: The apparent contradictory functional roles of CMKLR1 in inflammation may be associated with the spatiotemporal regulation of the inflammation processes in cells. It is possible that in the early stage of inflammation, the CMKLR1 signaling is mainly pro-inflammatory by promoting chemotaxis and activation of DCs and macrophages, whereas at the late stage of inflammation, CMKLR1 activation can induce pro-resolving pathways to dampen inflammation. Another possibility for the differing effects of CMKLR1 signaling on inflammation is that different chemerin isoforms may activate CMKLR1 to induce dis ... || The potential roles of CMKLR1 signaling in inflammation may provide promising new opportunities for developing anti-inflammatory drugs. […] Nevertheless, the only commercially a ...

[1] = test system: primary human macrophages; test: Macrophage differentiation assay, surface markers by flow cytometry (MFI fold-change); conditions: 72 hours, 10 ng/mL (each), vs M0, n = 4 donors
Procedure: Monocytes were enriched from human PBMC by CD14 beads positive selection (Miltenyi Biotec) and cultured in IMDM supplanted with 10% human AB serum (Omega Scientific, Cat# HS-20) for 7 days for them to differentiate to macrophages.
Differentiated macrophages were then replated to low-bind plate at 0.15 million cells per 24-well plate, in 500 μl medium overnight before stimulated with various condition. Human macrophage medium was used as M0 reference culture condition, while 10 ng/ml IFNg plus 10 ng/ml LPS supplement were used as M1 reference, and 10 ng/ml IL-10 supplement used as M2 reference. […] Data were acquired on Cytek Aurora flowcytometry, analysis on Flowjo. MFI quantifications were normalized to M0 condition and statistically analyzed by 2-way ANOVA, with Dunnett’s multiple comparisons test; all groups were pair analyzed with M0 group as reference.

## C[N+](C)(C)CCC(=O)c1cccc2ccccc12.[I-] [α-NETA]
CMKLR1; antagonist, ref [30]
  potency against CMKLR1: low micromolar potency

## chemerin15: synthetic peptide corresponding to the 141–155 amino acid segment of chemerin (AGEDPHSFYFPGQFA; UniProt Q99969 141-155, looked up, fragment)
CMKLR1; CMKLR1, ref [9]
  agonism and anti-inflammatory effects: stable agonists of CMKLR1 that induce anti-inflammatory effects

B1: IL-10: 10 ng/ml IL-10 supplement used as M2 reference (protein, UniProt P22301 19-178, looked up)
Interleukin-10: SPGQGTQSENSCTHFPGNLPNMLRDLRDAFSRVKTFFQMKDQLDNLLLKESLLEDFKGYLGCQALSEMIQFYLEEVMPQAENQDPDIKAHVNSLGENLKTLRLRLRRCHRFLPCENKSKAVEQVKNAFNKLQEKGIYKAMSEFDIFINYIEAYMTMKIRN
[1]
  CD86 expression in words: down-regulation
  CD163 expression in words: up-regulation
  CD206 expression in words: up-regulation
